{
  "source": "paper PMC11510448",
  "key": {"[1]": {"biological_target": "human Cu/Zn Superoxide Dismutase 1, A4V variant (Flag-SOD1-6His) (human) (UniProt P00441)", "experiment": "native gel or EMSA; Native-PAGE of selected gel filtration fractions, SDS-free 10% gel, samples not boiled, run at RT, Coomassie stain; ESTDZ2 (ca. 28 kDa) as size standard"}, "[2]": {"biological_target": "human Cu/Zn Superoxide Dismutase 1, A4V variant (Flag-SOD1-6His) (human) (UniProt P00441)", "experiment": "SEC; gel filtration of the Ni-NTA eluate on a custom-made calibrated Sephacryl S-200 column (1.2 x 100 cm), TBS pH 7.4, UV detection at 280 nm"}},
  "data": [
    {"substance": "human Cu/Zn Superoxide Dismutase 1, A4V variant (Flag-SOD1-6His) (from UniProt P00441 6-154) (enzyme)", "values": [
      {"measurement": "stoichiometry N", "setting": "[1]", "result": 2},
      {"measurement": "stoichiometry N", "setting": "[2]", "result": 2}
    ]}
  ]
}
